Among the targets are Vps4^101-437-Hcp1 K321A (S. cerevisiae | Pseudomonas aeruginosa, UniProt P52917 101-437, K321A); Vps4^101-437-Hcp1 (S. cerevisiae | Pseudomonas aeruginosa, UniProt P52917 101-437); Vps4^101-437-Hcp1 R325D (S. cerevisiae | Pseudomonas aeruginosa, UniProt P52917 101-437, R325D); Vps4^101-437-Hcp1 E322A (S. cerevisiae | Pseudomonas aeruginosa, UniProt P52917 101-437, E322A).
What all share (test): FP
Another experiment concerns the target T1, Vps4^101-437 L151D (S. cerevisiae, UniProt P52917 101-437, L151D).
T1 sequence: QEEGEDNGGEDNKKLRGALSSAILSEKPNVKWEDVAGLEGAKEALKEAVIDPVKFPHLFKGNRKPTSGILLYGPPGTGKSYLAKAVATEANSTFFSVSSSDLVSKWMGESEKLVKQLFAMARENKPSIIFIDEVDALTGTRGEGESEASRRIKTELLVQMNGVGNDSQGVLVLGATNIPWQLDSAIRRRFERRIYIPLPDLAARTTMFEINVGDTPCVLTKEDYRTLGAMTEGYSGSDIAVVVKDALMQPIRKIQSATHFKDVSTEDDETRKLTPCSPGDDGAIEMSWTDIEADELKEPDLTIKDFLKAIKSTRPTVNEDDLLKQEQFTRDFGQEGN

Where no end group is shown, it is not given here. fluorescein‑5‑maleimide = fluorescein-5-maleimide

The Kd is a measure of binding affinity in units of concentration. Low values mean a tighter complex, high ones a looser complex.

B1: fluorescently labeled Vta1^VSL S278C (domain or fragment)
chain: MASNAARVVATAKDFDKVGLGIIGYYLQLYAVELILSEEDRSQEMTALATELLDTIEAFKKEIGGESEAEDSDKSLHVMNTLIHDQEKAKIYMLNFTMSLYNEKLKQLKDGPWDVMLKRSLWCCIDLFSCILHLWKENISETSTNSLQKRIKYCKIYLSKLAKGEIGSSDEKTLDYADFADDSEEIKDEDVDHQTSDLENNNNDKVEGLAPKDQTTSYEPVDEVPEFIDDADSVNEEEQTVDKNEDAITKDEQQVVKKEVDLTRPSAPSEPAAAEHKCYTKDELTKIMDRASKIEQIQKLAKYAISALNYEDLPTAKDELTKALDLLNSI
modifications: fluorescein-5-maleimide on the single cysteine (S278C)
Consider B1, for which the Kd with Vps4^101-437-Hcp1 K321A is 367 nM; with Vps4^101-437-Hcp1, 184 nM; with Vps4^101-437-Hcp1 R325D, 564 nM; in the experiment with Vps4^101-437-Hcp1 E322A, 72 nM.

B2: fluorescently labeled Vta1^VSL S278C (domain or fragment)
chain: C(fluorescein‑5‑maleimide)YTKDELTKIMDRASKIEQIQKLAKYAISALNYEDLPTAKDELTKALDLLNSI
Consider B2, for which binding with Vps4^101-437 L151D was put at a Kd of 4400 nM.

The values are drawn from paper PMC5413351 (2017).
